Measured values taken from patent publication US20250134969A1 (CASE WESTERN RESERVE UNIVERSITY, published 2025).
Ends that are not written are not given here.

Target: T1, bovine serum albumin (bovine, UniProt P02769 25-607)
T1 construct: Negative control surface; also called BSA
Experiment: BioFlux microfluidic adhesion, RhB-labeled “VBP+CBP”-decorated liposomes flowed at 25 dyn/cm^2 over albumin-coated channels, fluorescence microscopy
Method: The “VBP+CBP”-decorated nanoparticles and control (undecorated) nano-particles were evaluated for their specific adhesion capabilities utilizing a BioFlux 200 microfluidic system (Fluxion Biosciences) and observed under inverted fluorescence microscope imaging. This system allows simulation of a physiologically relevant vascular flow environment. Here, the microfluidic channels were incubated with either 0.3 wt % bovine serum albumin (BSA) in water or 40 μg/mL equine type 1 fibrillar collagen and 10 μg/mL vWF in 20 μM acetic acid for 1.5 h. Unbound albumin and collagen were removed with a saline rinse. […] Fluorescence microscopy imaging of particle Rhodamine B label was used to quantify the extent of particle adhesion to the coated surfaces. Thrombin release kinetics was measured by sealing the column-separated t-TLNPs in a MWCO 100 K dialysis bag, placing the bag in a TBS reservoir, and removing aliquots from the reservoir at predefined time points over the course of 6 h (fresh TBS was added back to the reservoir appropriately after each aliquot removal). […] Thrombin concentrations from the collected aliquots were evaluated using a human thrombin ELISA and plotted over time to determine the release profile. […]

T1 sequence (P02769 25-607 limits assumed): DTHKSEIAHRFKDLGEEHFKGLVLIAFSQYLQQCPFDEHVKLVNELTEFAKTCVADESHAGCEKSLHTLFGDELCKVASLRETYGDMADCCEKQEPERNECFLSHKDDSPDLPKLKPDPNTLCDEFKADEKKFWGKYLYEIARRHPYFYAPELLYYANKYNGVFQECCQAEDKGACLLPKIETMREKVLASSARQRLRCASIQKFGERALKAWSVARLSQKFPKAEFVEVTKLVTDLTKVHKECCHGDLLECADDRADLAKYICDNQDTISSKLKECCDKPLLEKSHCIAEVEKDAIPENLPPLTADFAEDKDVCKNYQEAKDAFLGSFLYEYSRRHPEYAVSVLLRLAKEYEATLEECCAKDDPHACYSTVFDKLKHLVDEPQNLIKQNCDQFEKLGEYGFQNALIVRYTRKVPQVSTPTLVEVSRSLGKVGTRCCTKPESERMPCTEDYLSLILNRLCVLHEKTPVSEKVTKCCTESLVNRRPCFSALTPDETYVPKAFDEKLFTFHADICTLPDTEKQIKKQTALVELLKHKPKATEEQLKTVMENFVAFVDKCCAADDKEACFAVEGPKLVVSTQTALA

binding result: no binding
B1: vWF-binding peptide (VBP), cysteinylated, CTRYLRIHPQSWVHQI, conjugated to DSPE-PEG2K and displayed on liposomal nanoparticles (peptide)
peptide: C(DSPE‑PEG2000‑maleimide)TRYLRIHPQSWVHQI
notes: In every adhesion assay the peptide stood on the surface of liposomes (1.25 mol % DSPE-PEG2K-VBP) together with CBP (1.25 mol %); also called DSPE-PEG2K-VBP
